Experimental data as given in patent US7393448B2, “Method of binding a compound to a sensor surface” (Applied NanoSystems B.V., priority 2002, dated 2008).
Blank lines part the entries; values can stand above or below the molecule they belong to.

Columns and labels:
[1] = Immobilization of electroactive molecules on HYDPt-1-modified electrodes (cyclic voltammetry); type: physicochemical; conditions: Q10 bound to GCE covered with HYDPt-1
Experimental: Electrochemical experiments. Voltammetry experiments were done at 20° C. in three-electrode arrangement, with a calomel reference electrode, platinum foil counter electrode and GE, GCE or TMFE as working electrodes. Eco Chemie AUTO-LAB PGSTAT 30 system was used as the potentiostat with an IBM PC and Eco Chemie software. In order to prepare the TMFE, a silver wire or silver disk electrode precleaned in concentrated perchloric acid was touched to a drop of mercury and cathodically polarized in 0.1 M KOH to obtain a shining and uniform layer of mercury, ca. 1 mm thick. The GE and GCE were polished on Buehler polishing papers and paste, and the GE was cleaned in concentrated nitric acid. The electrodes were coated with the self-assembled hydrophobin upon contact with the surface of solutions containing 2 μg of hydrophobin per 1 ml of 10 mM Tris-HCl buffer. The time of the hydrophobin self-assembly and the conditions of Q0, Q10 and diazobenzene adsorption on hydrophobin-coated electrodes are given below.
Hydrophobin as a “molecular glue” for immobilizing molecules on the electrode surface. In the present work, we checked the ability of HYDPt-1 to bind through adsorption to different types of electroactive molecules to electrode surfaces. […]
Curve 1 was recorded after adsorption of the diazobenzene for the same lapse of time, but on the bare GCE. […]

[2] = Immobilization of cholesterol oxidase on hydrophobin-coated glassy carbon electrode, current response to cholesterol; type: biochemical; conditions: GCE, phosphate buffer pH 7 (25 mM), cholesterol added
Source text: Immobilization of cholesterol oxidase on a glassy carbon electrode. […] The coated electrode was submerged in a cholesterol oxidase-containing solution (0.5 U/ml) for two hours and rinsed with water.
To overcome the poor solubility of cholesterol in water, the cholesterol was solubilized in isopropanol with Triton in phosphate buffer (Ropers, M-H. et al., 2001, Phys. Chem. Chem. Phys. 3:240-245). Upon addition of cholesterol, the immobilized cholesterol oxidase catalyzed the reaction and led to formation of hydrogen peroxide. The peroxide produced a small detectable current over the electrode which correlated to the concentration of cholesterol added.

[3] = cited from earlier work
[4] = at 50 μg ml^−1; cited from earlier work

- stability of ubiquinone reduction and oxidation signals [1]: remained unchanged for several weeks
Molecule: COC1=C(OC)C(=O)C(C/C=C(\C)CC/C=C(\C)CC/C=C(\C)CC/C=C(\C)CC/C=C(\C)CC/C=C(\C)CC/C=C(\C)CC/C=C(\C)CC/C=C(\C)CCC=C(C)C)=C(C)C1=O [Q10, ubiquinone 50]

Molecule: cholesterol oxidase
- enzyme activity upon immobilization on the hydrophobin layer [2]: remaining active

B1: SC3: best characterized class I hydrophobin, of Schizophyllum commune (protein, UniProt P16933 25-136, looked up)
Class I hydrophobin SC3: GGHPGTTTPPVTTTVTVTTPPSTTTIAAGGTCTTGSLSCCNQVQSASSSPVTALLGLLGIVLSDLNVLVGISCSPLTVIGVGGSGCSAQTVCCENTQFNGLINIGCTPINIL
- water contact angle, hydrophilic side of SC3 membrane ([3]; hydrophilic side): 36 °
- water contact angle, hydrophobic side of SC3 membrane ([3]; hydrophobic side): 110 °
- maximal lowering of the water surface tension (from 72) [4]: 24 mJ m^−2
